The text below walks through data of patent US20230218735A1 (Pfizer, published 2023).

The target of one test is C. difficile toxin A (Clostridium difficile, UniProt P16154 1-2710). As to the kind of experiment: cell-based or functional assay.
In test [1] the target is T1, genetically modified and chemically inactivated C. difficile toxoid A (Clostridium difficile, UniProt P16154 2-2710).
T1 construct: also called TxdA; the toxoid
The test is described as follows: ITC. A general note: In ITC the heat of successive injections is recorded.

B1: hCDIFA-59 (antibody, V domains shown)
VH: QVQLVESGGGLVQPGRSLRLSCRTSGFTFGDFALSWVRQAPGKGLEWVGYIRSKTFGGTTEYAASVKGRFTMSRDDSKSIAYLQMNSLKTEDTAVYFCTRASYGAFDYWGQGTLVTVSS
VL: DIVMTQSPSSLSASVGDTVTITCRAGQNIATYLHWYQQKPGKAPNLLIYDARTLQSGVPSRFSGSGSGTDFTLTINSLQPEDFATYYCQQSYNTPWTFGQGTKVEIKR
B1: the “EC50 TcdA [RLU], toxin neutralization assay (TNA) on IMR90 cells” value (“EC50 TcdA [RLU]” for short) with C. difficile toxin A is 9 RLU.

B2: hCDIFA-15 (antibody, V domains shown)
VH: QVQLVQSGAEVKKPGASVKISCKASGYTFVRYYMHWVRQAPGQGLEWMGLIDPSGGSTRYAQRFQGRVTMTRDTSTSTVYMELSGLRSEDTAVYYCARDGPFGGLSGGNWFDPWGQGTLVTVSS
VL: AIRMTQSPGTLSLSPGERATLSCRASQSLSFSYLAWYQQKPGQAPRLLIYGASSRATGIPDRFSGSGSGTDFALTISRLEPEDFAVYYCQQYGTSPLTFGGGTKVDIKR
In the case of B2, in test [1], the “DH” value is -2.7 kcal/mol, the Kd was found to be 38 nM and the Stoichiometry was found to be 1.68. The “EC50 TcdA [RLU]” value with C. difficile toxin A is approximately 147 RLU.

B3: hCDIFA-24 (antibody, V domains shown)
VH: QVQLVQSGGGVVQPGRSLRLSCAASGFSFSTHGMHWVRQAPGKGLEWVAVISYDGSNKYYADSVKGRFTISRDNSKNTVYLQMNSLRAEDTAVFYCAKPRDNYYYYGMDVWGQGTTVTVSS
VL: AIRMTQSPSSLSASTGNRVTITCRASQGISSYLAWYQQKPGKAPNLLIYAASTLQSGVPSRFTGSGSGTDFTLTISRLHSENFATYYCQQYFNYPRTFGQGTRLEIKR
For B3, in test [1], the “DH” value is -11.2 kcal/mol; the affinity, expressed as Kd, was 6 nM; the Stoichiometry worked out at 1.07. Moreover, the “EC50 TcdA [RLU]” value with C. difficile toxin A was determined as 6300 RLU.

B4: hCDIFA-41 (antibody, V domains shown)
VH: QVQLQESGPGLVKPSQTLSLTCTVSGDSISSNQYYWTWIRQPAGKGLEWIGQIESAYFTNYNPSLKGRVTISGDASKNVLSLTLTSVTAADTALYWCAREAGGGLGYCTGGRCQFSGYYYYGLDVWGQGTTVTVSS
VL: QSALTQPPSVSAAPGQTVTISCSGSHSNIGNNYVSWYQQLPGTAPRRLIYDTDKRPSGIPDRFSGSKSGTSATLVITGLRAGDEADYYCGTWDGSLSAGVFGGGTKLTVLG
Regarding B4, the “EC50 TcdA [RLU]” value in the test with C. difficile toxin A worked out at 673 RLU.

B5: hCDIFA-55 (antibody, V domains shown)
VH: EVQLLESGAEVKKPGASVKVSCKASAYTFTTYGINWVRQAPGQGLEWMGWVSFSNGNTEYAQKFQGRVTMTTDTSTSTAFMELRSLRSDDTAVYYCASEKGELLSGCFDPWGQGTLVTVSS
VL: QSVLTQPPSVSAAPGQKVTISCSGSSSNIGNSLVSWYQHLPGTAPKLLISDNNERPSGIPDRFSGSKSGTSATLGITGLQTGDEADYYCGTWDSSLSVVVFGGGTKLTVLG
As to B5, in the test with C. difficile toxin A, the “EC50 TcdA [RLU]” value is 942000 RLU.

B6: hCDIFA-6 (antibody, V domains shown)
VH: QVQLQESGPGLVKPSQTLSLTCSVSGDSSSSGDYYWNWIRQPAGKGLEWIGYIYTSGSTNYNPSLKSRVTISEDTSKKQFSLKLTSVTAADTAVYYCARGIVGVGLDYWGQGTLVTVSS
VL: EIVMTQSPSTLSASVGDRVTITCRASQTISSWLAWYQQKPGRAPKLLMSKTSTLQPGVPSRFSGSGSGTEFTLTISGLQPDDVATYYCHHYNSWPFGPGTKVEIKR
As for B6, the “EC50 TcdA [RLU]” value in the test with C. difficile toxin A was 1420 RLU.

B7: hCDIFA-51 (antibody, V domains shown)
VH: EVQLLESGGGVVQPGRSLRLSCAASGFTFSNYGMHWVRQAPGKGLEWVAVIWYDGSNKYYADSVKGRFTISRDNSKNMVYLQMNSLRGADTAVYYCAGDRHLGLWGYYYYYYAMDVWGQGTTVTVSS
VL: QAVVTQPPSVSAAPGQRVTISCSGSSSNIGKNYVSWYQHLPGTAPKLLIYESNKRPSGIPDRFSGSKSGTSATLGITGLQTGDEADYYCGTWDSSLSAGLFGGGTKVTVLG
Consider B7, for which the “EC50 TcdA [RLU]” value with C. difficile toxin A stood at 1640 RLU.

B8: hCDIFA-4 (antibody, V domains shown)
VH: QVQLQESGPGLVKPSGTLSLTCAVSGGSISSINWWSWVRQPPGKGLEWIGEIYHSGSTNYNPSLKSRVTISVDKSKNQFSLKLSSVTAADTAVYYCAREGKVDSSSQGNWFDPWGQGTLVTVSS
VL: QPVLTQPRSVSGSPGQSVTISCTGTSSDVGGYNYVSWYQQHPGKAPKFMIYDVSKRPSGVPDRFSGSKSGNTASLTISGLQAEDEADYYCCSYAGTYTFYVFGTGTKVTVLG
Take B8: in the test with C. difficile toxin A, the “EC50 TcdA [RLU]” value is 22800 RLU.

B9: hCDIFA-32 (antibody, V domains shown)
VH: QVQLQESGPGLVKPSETLSLTCTVSGGSISSHYWSWIRQTPGKGLEYIGNIYYTGRTKYNPSLKSRVTISADMSKNQVSLKLNSVTAADTAVYYCARGGPLMDVWGQGTTVTVSS
VL: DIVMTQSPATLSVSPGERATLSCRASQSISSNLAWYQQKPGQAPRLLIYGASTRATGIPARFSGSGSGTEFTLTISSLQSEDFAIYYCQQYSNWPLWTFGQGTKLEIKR
Regarding B9, in test [1], the “DH” value was -12 kcal/mol, the dissociation constant (Kd) was determined as 21 nM and the Stoichiometry worked out at 0.21. For the same molecule, the “EC50 TcdA [RLU]” value in the test with C. difficile toxin A was determined as 306 RLU.

B10: hCDIFA-37 (antibody, V domains shown)
VH: QVQLLESGPGLVKTSGTLSLTCSVSGDSVSTNNWWTWVRQPPGKGLEWIGEIYYNGNTIYNPSFKSRVTISVNRSKNHFSLKLNSVTAADRAVYYCARRTWNDVGPFDYWGQGILVTVSS
VL: DIVMTQSPSSLSASIGDRVIITCRASQNINRYLNWYQQTAGKAPKLLIYGTSNLQSGVPSRFSGSGSGSGTDFTLTISSLQPEDFATYYCHQSYRTPQTFGQGTKLEIKR
B10: in test [1], the “DH” value is -7.9 kcal/mol, the dissociation constant Kd worked out at 7 nM and the Stoichiometry stood at 0.95. The “EC50 TcdA [RLU]” value with C. difficile toxin A was found to be 37100 RLU.

B11: hCDIFA-35 (antibody, V domains shown)
VH: EVQLVQSGGGVVQPGRSLKLSCAASGFSFSSHGMHWVRQAPGKGLEWVALISYDGSYKYYEDSVKGRFTISRDNSKNTLYLQMNSLRAEDTAVYYCAKDWERYCSGMSCYLRNSLDYWGQGTLVTVSS
VL: QSALTQPPSVSVAPGKTAGITCGGPNIGSKSVHWYQRKPGQAPVLVVYDDRYRPSGIPERFSGSNSGNTATLSISRVEAGDEADYYCQVWDSRSDHVVFGGGTKLTVLG
For B11, in test [1], the “DH” value was -16.6 kcal/mol, binding was put at a Kd of 8 nM and the Stoichiometry worked out at 1.04. In addition, the “EC50 TcdA [RLU]” value with C. difficile toxin A was approximately 52 RLU.

B12: hCDIFA-49 (antibody, V domains shown)
VH: QVQLQESGPRLLEPSETLSLSCTVSGGSITSYYWGWIRQSPGKGLQWIGHIDSSGNTNYNYNSSLMNRVTISVVTSKNQFSLKLTSVTPADSAVYYCARVYLFYFGQSKWEYFDSWGQGTLVTVSS
VL: QSALTQPPSVSGAPGQRVTISCTGSDSNIGTDYDVHWYKQVPGAAPKLLIYGINNRPSGVPDRFSGSKSGTSASLAITGLQAEDEGDYYCQSYDIRPSGSVVFGGGTKLTVLG
Regarding B12, the “EC50 TcdA [RLU]” value with C. difficile toxin A was determined as 305000 RLU.

B13: hCDIFA-54 (antibody, V domains shown)
VH: QVQLVESGAEVKKPGASVKVSCKASGYTFTSYDINWVRQATGQGLEWMGWMNPNSGNTGYAQKFQGRVTMTRNTSISTAYMELSSLRSEDTAVYYCARGGPNSGSFSHWFDPWGQGTLVTVSS
VL: QAVVTQPPSASASLGASVTLTCTLSSGYSNYKVDWYQQRPGKGPRFVMRVGTGGIVGSKGDGIPDRFSVLGSGLNRYLTIKNIQEDDESDYHCGADHGSGSNFAVVFGGGTKLTVLG
Take B13: the “EC50 TcdA [RLU]” value with C. difficile toxin A was found to be 1490 RLU.

B14: hCDIFA-1 (antibody, V domains shown)
VH: QLQLQESGPGLVKPSETLSLICTVSGGSFSSSDFYWGWIRQPPGKGLEWIGNFYYNGSTSYNPSLKSRVTISVDTSKNQFSLKLRSVTAADTAVYYCARDYNFWNNSPNWFDPWGQGTLVTVSS
VL: EIVMTQSPATLSVSPGERATLSCRASQSISSNLAWYQQKLGQAPRLLIHGASTRATGIPARFSGSGSGTQFTLTISSLQSEDFAVYFCQQYNNWPPTFGGGTKVDIKR
Consider B14, for which, in test [1], the “DH” value was -17.2 kcal/mol, the Kd was 8 nM and the Stoichiometry is 1.45. In addition, the “EC50 TcdA [RLU]” value in the test with C. difficile toxin A was determined as 5760 RLU.

B15: hCDIFA-5 (antibody, V domains shown)
VH: EVQLVESGPGLVKPSETLSLTCAVSGGSISGYYWSWIRQPPGKGLEWIAYIYDSGSTSHNPSLKSRVTTSVDTSKNQFSLKLNSVTAADTAVYYCARSGKWALGAFDMWGQGTMVTVSS
VL: QSALTQPPSVSGAPGQRVTISCTGSSSNIGAGYDVHWYQQLPGTAPKLLISGNNNRPSGVPDRFSGSKSGTSASLAITGLQAEDEADYYCQSYDNDLSGLVVFGGGTKLTVLG
Turning to B15, in the test with C. difficile toxin A, the “EC50 TcdA [RLU]” value was found to be 1450 RLU.

B16: hCDIFA-47 (antibody, V domains shown)
VH: QVQLQESGAEVKKPGSSVKVSCQASGGTFSNYAFNWVRQAPGQGLEWMGRTIPIVGLVNYAQNFQGRITFSADKSTSTAYMEVNSLRSDDTAVYYCARAEYPLNCTRGNCDVGTSYHYYYGMGVWGRGTTVTVSS
VL: EIVMTQSPATLSVSPGERATLSCRASQSISSNLAWFQQKPGQAPRLLIHGASTRATGIPVRFSGSGSGTEFTLTISSLQFGDSAVYYCQQYYNWRYTFGQGTKLEIKR
With B16, the “EC50 TcdA [RLU]” value with C. difficile toxin A is 12700 RLU.

B17: hCDIFA-53 (antibody, V domains shown)
VH: QVQLQQSGPGLVKPSETLSLTCTLSGGSISSDNYYWGWVRQPPGKGLEWIGSIYYSGSTYYNPSLKSRVFISVDMSKNQFSLKLSSVTAADTAVYYCARHTQGLGILRYFDWWTRPFDYWGQGTLVTVSS
VL: QSALTQPASVSGSPGQSITISCTGTSSDVGSYNLVSWYQQHPGKAPKLMIYEGSKRPSGVSNRFSGSKSGNTASLTISGLQAEDEADYYCCSYAGSSTLFGGGTKLTVLG
Turning to B17, the “EC50 TcdA [RLU]” value with C. difficile toxin A was determined as 4100 RLU.

B18: hCDIFA-50 (antibody, V domains shown)
VH: QVQLVQSGTEVKKPGASVKVSCKASGYTFTNYGISWVRQAPGQGLEWMGWISGNNGHTNYAQNLQGRVTMTTDTSTSTAYMELRSLRSDDTAVYYCARVTRWFGELLGDYWGQGTLVTVSS
VL: QTVVTQEPSLTVSPGGTVTLTCASSTGAVTSGFLPNWFQQKPGQAPRALIYNTNNKHSWTPARFSGSLLGGKAALTLSGVQPEDEAEYYCLLYFDDAQVQVFGGGTKLTVLG
Regarding B18, the “EC50 TcdA [RLU]” value with C. difficile toxin A was 1490 RLU.

B19: hCDIFA-43 (antibody, V domains shown)
VH: QVQLVQSGPVLVKPTETLMLTCTVSGFSLSSAGMGVSWIRQPPGKAPEWLAHIFLSDEKSYRTSLESRLTISKDTSKSQVVLIMTNVDPADTATYYCARALKRYCTGGVCFLNWFDSWGPGTVVTVSS
VL: DIVMTQSPGTLSLSPGERATLSCRASLSIGNLYLAWYKQRPGHPPRLLIYGASSRATGTPDRFSGSGSGTDFTLTISRLEPEDFVVYYCQQYKTSPWTFGQGTKVEIKR
In the case of B19, the “EC50 TcdA [RLU]” value with C. difficile toxin A was 3210 RLU.

What is called Kd is the constant that tells how readily two partners part at equilibrium.
